Laboratory results published in patent publication WO2010028797A1 (dated 2010).

Biological target: human CCR5 (human, UniProt P51681 1-352)
Assay: cell-based or functional assay

human CCR5, sequence (P51681 whole entry): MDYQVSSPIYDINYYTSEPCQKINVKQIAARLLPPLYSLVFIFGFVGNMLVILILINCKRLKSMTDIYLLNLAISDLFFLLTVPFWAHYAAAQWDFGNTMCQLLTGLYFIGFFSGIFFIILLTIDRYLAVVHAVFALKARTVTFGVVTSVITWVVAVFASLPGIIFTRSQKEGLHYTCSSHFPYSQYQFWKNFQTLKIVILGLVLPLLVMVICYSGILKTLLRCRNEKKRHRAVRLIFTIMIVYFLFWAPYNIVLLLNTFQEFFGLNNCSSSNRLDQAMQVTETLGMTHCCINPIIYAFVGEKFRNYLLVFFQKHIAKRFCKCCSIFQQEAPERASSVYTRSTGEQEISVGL

B1: BN-1000 (antibody, V domains shown)
VH: QVQLKQSGPGLVRPSQSLSITCTVSGFPLGIFGVHWVRQSPGKGLEWLGVIWKGGNTDYNAAFMSRLRITKDNSKSQVFFRMNSLQTDDTAIYYCAKVNLADAMDYWGQGTSVIVSS
VL: DIQMTQSPASLSASVGETVTITCRASGNIHGYLAWFQQKQGKSPQLLVYNTKTLAEGVPSRFSGSGSGTQFSLKINSLQPEDFGNYYCQHHYDLPRTFGGGTKLEIK
B1 was tested, and the “IC50, antiviral assay in PBMC (HIV-1 NLBaL, p24 ELISA)” value was 1.08 nM.
